Experimental data published in the supplement of paper PMC7125110.
± gives the standard error. Fewer inactive variants are shown than the library holds.

B1: glmS ribozyme (parent)
chain: AUAAAAGCGCCAGAACUACAGAAAUGUAGUUGACGAGGAGGAGGUUUAUCGAAUUUUCGGCGGAUGCCUCCAAA

Experiments:
Conditions in all cases: with glucosamine-6-phosphate
[1] = variants of: B1; test: self-cleavage kobs at 40 uM GlcN6P; higher = faster cleavage; RNA array
How it was run: (§1)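 Weighted Michaelis–Menten fits across concentrations supplied kcat and KM, based on kobs from one- or two-exponential decay fits to normalised per-tile medians. The data came from barcoded ribozyme variants transcribed in situ by E. coli RNA polymerase on sequenced MiSeq chips and tracked at 37 °C by a hybridised Cy3 probe. Glucosamine-6-phosphate (40 μM to 10 mM) in HEPES/KCl/Mg(OAc)2 buffer was flowed in.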

[2] = variants of: B1; test: self-cleavage kobs at 160 uM GlcN6P; higher = faster cleavage; RNA array
How it was run: as §1

[3] = variants of: B1; test: self-cleavage kobs at 2500 uM GlcN6P; higher = faster cleavage; RNA array
How it was run: as §1

[4] = variants of: B1; test: self-cleavage kobs at 10000 uM GlcN6P; higher = faster cleavage; RNA array
How it was run: as §1

[5] = variants of: B1; test: self-cleavage kobs at 640 uM GlcN6P; higher = faster cleavage; RNA array
How it was run: as §1

Row | Variant | self-cleavage kobs at 40 uM GlcN6P [1] [s⁻¹] | self-cleavage kobs at 160 uM GlcN6P [2] [s⁻¹] | self-cleavage kobs at 2500 uM GlcN6P [3] [s⁻¹] | self-cleavage kobs at 10000 uM GlcN6P [4] [s⁻¹] | self-cleavage kobs at 640 uM GlcN6P [5] [s⁻¹]
1 | C50U A52C | < 1e-05 | < 1e-05 | < 1e-05 | < 1e-05 | –
2 | A48U C50A G66U | < 1e-05 | – | – | – | –
3 | U56G C71A | 8.72e-05 ± 1.6e-05 | 0.000152 ± 4.1e-05 | 0.000518 ± 0.00011 | 0.00215 ± 0.0004 | 0.000589 ± 0.00013
4 | U56G C71U | 0.000303 ± 4.6e-05 | 0.000762 ± 0.00016 | 0.00323 ± 0.00056 | 0.0163 ± 0.0024 | 0.00222 ± 0.00042
5 | A48C C61A | < 1e-05 | – | – | < 1e-05 | < 1e-05
6 | A48U U49A | < 1e-05 | < 1e-05 | – | – | < 1e-05
7 | A53U U54A C68U | 0.00036 ± 9.6e-05 | – | – | 0.013 ± 0.0042 | –
8 | U55G C61A G66C C70A | 0.000162 ± 4.4e-05 | 0.000108 ± 2.1e-05 | 8.3e-05 ± 1.7e-05 | – | 0.000153 ± 3.1e-05
9 | G59C G62U | < 1e-05 | < 1e-05 | – | < 1e-05 | –
10 | G51U A53C | < 1e-05 | < 1e-05 | – | – | < 1e-05
11 | A52C A64G | < 1e-05 | < 1e-05 | – | – | < 1e-05
12 | U49A A52G | < 1e-05 | – | – | – | –
13 | G59C C71U | < 1e-05 | < 1e-05 | < 1e-05 | < 1e-05 | < 1e-05
14 | U54G C67U | 0.000313 ± 5.9e-05 | 0.000612 ± 0.00014 | 0.00208 ± 0.00059 | – | 0.00333 ± 0.00057
15 | G59A G63C | < 1e-05 | < 1e-05 | < 1e-05 | – | < 1e-05
16 | U49A C50G U57A C67A C71A | 0.000473 ± 0.00018 | 0.000223 ± 6.6e-05 | 7.6e-05 ± 3.3e-05 | – | 0.000357 ± 0.00011
17 | A48C U69G | < 1e-05 | < 1e-05 | – | < 1e-05 | –
18 | C50A G63C | < 1e-05 | < 1e-05 | – | < 1e-05 | –
19 | C50G G63C C71U | 7.02e-05 ± 2.9e-05 | – | – | – | –
20 | U54G U56G G63A C67U | < 1e-05 | – | – | < 1e-05 | –
21 | A48C G60U | < 1e-05 | < 1e-05 | < 1e-05 | < 1e-05 | < 1e-05
22 | U47G C71U | 0.000224 ± 2.2e-05 | 0.000648 ± 8.2e-05 | 0.00216 ± 0.00038 | 0.00702 ± 0.00088 | 0.001 ± 0.00012

Row | Variant | self-cleavage kobs at 40 uM GlcN6P [1] [s⁻¹] | self-cleavage kobs at 160 uM GlcN6P [2] [s⁻¹] | self-cleavage kobs at 2500 uM GlcN6P [3] [s⁻¹] | self-cleavage kobs at 10000 uM GlcN6P [4] [s⁻¹] | self-cleavage kobs at 640 uM GlcN6P [5] [s⁻¹]
23 | A53C G62A | < 1e-05 | – | – | < 1e-05 | –
24 | G51A G62C C67A | < 1e-05 | – | – | < 1e-05 | –
25 | A48U C50G C67U | 0.000126 ± 4.4e-05 | – | – | – | –
26 | G59C G60U | < 1e-05 | < 1e-05 | < 1e-05 | < 1e-05 | < 1e-05
27 | U47G G66A C70U | 0.000121 ± 3e-05 | – | – | 0.00591 ± 0.0017 | –
28 | C50A G51C | < 1e-05 | – | – | < 1e-05 | –
29 | U56G G62U G63U | < 1e-05 | – | – | < 1e-05 | –
30 | U49G C61U | < 1e-05 | < 1e-05 | – | – | –
31 | C50G G63A C68A U69C | 0.000106 ± 2.3e-05 | – | – | 0.000147 ± 2.8e-05 | –
32 | U47C G60U | < 1e-05 | < 1e-05 | < 1e-05 | – | < 1e-05
33 | U54G G62C U69C | < 1e-05 | – | – | < 1e-05 | –
34 | U56C G62C | < 1e-05 | – | – | < 1e-05 | < 1e-05
35 | G51C G59U | < 1e-05 | < 1e-05 | – | – | < 1e-05
36 | U56C C68U | < 1e-05 | – | – | – | < 1e-05
37 | U56C C61G | < 1e-05 | – | < 1e-05 | < 1e-05 | –
38 | C58A G59U C68U | < 1e-05 | – | – | – | –
39 | U56A C68U | 0.000143 ± 2.2e-05 | 0.000404 ± 8.3e-05 | 0.00101 ± 0.00018 | 0.00472 ± 0.00088 | 0.000955 ± 0.00014
40 | A53C C58A G60U | < 1e-05 | – | – | – | –
41 | A48U C50U | < 1e-05 | < 1e-05 | < 1e-05 | < 1e-05 | < 1e-05
42 | U47G U56G G63U | < 1e-05 | – | – | – | –
43 | U54G G62C | < 1e-05 | < 1e-05 | < 1e-05 | < 1e-05 | < 1e-05
44 | C50G G59U C67G | 0.000108 ± 1.9e-05 | – | 0.000245 ± 5.2e-05 | 5.5e-05 ± 1.5e-05 | –
